From patent US20180142032A1 (Sanofi, published 2018) come the findings set out here.

Where a chain is given by its changes, count along the chain named. In names and notes the source's numbering stands. Like-named read-outs stand apart in the source and are kept apart here.

For experiment [1], the target named is T1, LAMP1::histag (human, UniProt P11279 29-382).
T1 construct: extracellular domain without signal peptide, C-terminal 6 His tag, made in HEK293 cells; also called recombinant human LAMP1; human LAMP1 (29-382)
T1 sequence: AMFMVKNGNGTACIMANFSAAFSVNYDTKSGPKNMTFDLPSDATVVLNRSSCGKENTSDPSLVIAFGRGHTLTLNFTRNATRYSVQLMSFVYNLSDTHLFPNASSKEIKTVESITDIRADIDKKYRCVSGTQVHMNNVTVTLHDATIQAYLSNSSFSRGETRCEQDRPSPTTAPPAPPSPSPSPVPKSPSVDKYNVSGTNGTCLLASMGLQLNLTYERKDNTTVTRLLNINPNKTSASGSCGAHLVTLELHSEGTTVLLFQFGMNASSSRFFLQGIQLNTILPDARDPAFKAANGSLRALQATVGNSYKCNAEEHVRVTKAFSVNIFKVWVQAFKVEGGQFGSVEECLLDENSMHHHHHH
Description: SPR (BIAcore 2000), mAb captured by anti-Fc, LAMP1 injected 1 to 256 nM. The protocol:
The binding kinetics of the murine, chimer or humanized anti-LAMP1 mAbs were determined by surface plasmon resonance assay using a BIAcore 2000 (BIAcore Inc., Uppsala, N.J.). […] A mouse anti-αhuman Fc IgG1 (BIAcore #BR-1008-39) and rabbit anti-αmurine Fc IgG1 (BIAcore #BR-1008-38) (50 μg/mL in […], pH5) were immobilized on the activated chips in all flow cells. The immobilization was carried out at a flow rate of 10 μL/min up to saturation. The chip was then blocked by injection of 70 μL of ethanolamine-HCl, pH 8.5, followed by one wash with 3 M MgCl₂ for anti-αhuman Fc IgG1 and one wash with 10 mM Glycine-HCl pH 1.7 for anti-αmurine Fc IgG1. To measure the binding of anti-LAMP1 mAbs to LAMP1, antibodies were used at 1-5 μg/mL in BIAcore running buffer (HBS-EP). […] Following completion of the injection phase, dissociation was monitored in a BIAcore running buffer at the same flow rate for 600 sec. […] Individual sensorgrams were analyzed using BIAevaluation software.
Background: SPR reads the build-up and loss of mass on a sensor chip optically.

In experiment [2] the target is T2, cynomolgus monkey LAMP1 at the cell surface (cynomolgus monkey, UniProt P11279 29-417 (human entry)).
T2 construct: also called cynoLAMP1; cynomolgus LAMP1
T2 chain: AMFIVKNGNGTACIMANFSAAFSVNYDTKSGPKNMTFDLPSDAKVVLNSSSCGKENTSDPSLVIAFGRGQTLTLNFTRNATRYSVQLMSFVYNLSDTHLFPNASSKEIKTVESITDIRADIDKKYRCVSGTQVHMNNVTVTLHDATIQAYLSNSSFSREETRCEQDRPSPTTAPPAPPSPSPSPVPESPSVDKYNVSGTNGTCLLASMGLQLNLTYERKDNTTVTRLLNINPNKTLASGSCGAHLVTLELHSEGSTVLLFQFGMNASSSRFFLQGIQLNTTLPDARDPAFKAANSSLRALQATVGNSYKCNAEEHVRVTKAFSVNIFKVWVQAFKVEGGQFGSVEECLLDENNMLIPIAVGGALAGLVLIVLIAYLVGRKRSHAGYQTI
Kind of experiment: flow cytometry. A general note: Flow cytometry measures light scatter and fluorescence of single cells or particles in a stream.

In experiment [3] the target is T3, human LAMP1 at the cell surface (human, UniProt P11279 29-417).
T3 sequence: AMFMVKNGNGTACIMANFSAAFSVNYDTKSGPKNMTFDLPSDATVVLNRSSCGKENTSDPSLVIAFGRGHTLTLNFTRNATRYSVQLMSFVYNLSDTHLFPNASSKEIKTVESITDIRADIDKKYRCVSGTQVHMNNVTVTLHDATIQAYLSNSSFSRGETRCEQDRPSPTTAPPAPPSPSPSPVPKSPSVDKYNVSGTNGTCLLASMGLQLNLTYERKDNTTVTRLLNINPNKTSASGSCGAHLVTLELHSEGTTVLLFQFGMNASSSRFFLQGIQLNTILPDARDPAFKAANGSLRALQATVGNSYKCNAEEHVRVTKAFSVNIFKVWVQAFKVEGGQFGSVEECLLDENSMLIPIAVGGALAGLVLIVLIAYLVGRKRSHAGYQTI
Kind of experiment: cell-based or functional assay.

Experiment [4] has as its target T3, human LAMP1 at the cell surface. Description: flow cytometry, HCT116 huLAMP1 clone 8. As for the experimental part:
HCT116 cells were infected by a lentiviral vector allowing stable integration of the human or the cynomolgus LAMP1 CDS in genomic DNA of cells. Individual clones with different densities of human or cynomolgus LAMP1 cell surface localization were derived from a pool of HCT116 infected cells. […] 100 μL/well of goat anti-human IgG conjugated with Alexa488 (Invitrogen; # A11013) was added for 1 h at 4° C. and washed two times with PBS 1% BSA. The antibody binding was evaluated after centrifugation and resuspension of cells in 100 μl fixing solution (paraformaldehyde at 4% in PBS). Samples were read using Galaxy® Flow Cytometry System (Partec). EC50 values were estimated using BIOST@T-SPEED software.

Experiment [5] deals with T2, cynomolgus monkey LAMP1 at the cell …. Description: flow cytometry, HEK293 cynoLAMP1 clone 44.
Experiment [6] deals with T3, human LAMP1 at the cell surface. Description: cell-based or functional assay. This is another data set of the same source.
Experiment [7] has as its target T2, cynomolgus monkey LAMP1 at the cell …. Kind of experiment: flow cytometry, HEK293 cynoLAMP1 clone 44.
Experiment [8] addresses T1, LAMP1::histag. Description: ELISA on secreted human LAMP1.

B1: chMAb2can (antibody, human IgG1, kappa, V domains shown)
VH: QVQLQQSAAELARPGASVKMSCKASGYTFTSYTMHWVKQRPGQGLEWIGYFNPSSGYPEYNQKFKDKTTLTADKSSNTAFIQLNSLTSEDSAVYYCSRGYYYGSRGYALDFWGQGTSVTVSS
VL: NIVLTQSPASLAVSLGQRATISCRASESVDINGNTFMHWYQQKPGQSPKLLIYAASNLESGVPARFSGSGSGTDFTFTIDPVEADDVATYYCQQNIEDPWTFGGGTKLEIKR
What is called Kd is the constant that tells how readily two partners part at equilibrium. On to B1, for which the Kd with LAMP1::histag [1] came out at 68.8 nM.

B2: DM4-SPDB-chMAb2 (antibody, human IgG1, kappa, V domains shown)
VH: B1 VH
VL: B1 VL
modifications: DM4 linked through SPDB, average DAR 3.7 per antibody; sites not stated
notes: also called DM4-SPDB-chMAb2can
One may read the EC50 as the concentration giving half of the maximal effect. Turning to B2, the “Ratio of EC50s (cynoLAMP1 against huLAMP1)” value (from here on “Ratio of EC50s”) in experiment [2] stood at 2.3. The “cytotoxicity IC50, HCT116 huLAMP1 clone 8” value (shortened to “cytotoxicity IC50”) in experiment [3] was 0.07 nM. Further, the EC50 in experiment [4] worked out at 5.5 nM; in experiment [5], 12.8 nM.

B3: DM4-SPDB-chMAb3 (antibody, human IgG1, kappa, V domains shown)
VH: QIQLVQSGPELKKPGETVKISCKASGYIFTNYGMNWVKQAPGKGLKWMGWINTYTGESRYADDFKGRFALSLETSASTAYLQINNLENEDMATYFCAREDYYGNSPWFFDVWGAGTTVTVSS
VL: DIQMTQTTSSLSASLGDRVTISCRASQGINKYLNWYQQKPDGTVKLLIYYTSTLHSGVPSRFSGSGSGTDYSLTINNLEPEDIATYYCQQYTRLPFTFGSGTKLEIKR
modifications: DM4 linked through SPDB, average DAR 3.7 per antibody; sites not stated
In the case of B3, the “Ratio of EC50s” value in experiment [2] came to 0.7. Also, the “cytotoxicity IC50” value in experiment [3] is 0.06 nM. Moreover, the EC50 is 9.1 nM in experiment [4] and 6.1 nM in experiment [5].

B4: chMAb3_VLR24-R93 (antibody, human IgG1, kappa, V domains shown)
VH: B3 VH
VL: B3 VL
notes: chimeric, human IgG1, Ckappa; VL with N24R and K93R
For B4, the Kd with LAMP1::histag [1] was 7.2 nM.

B5: DM4-SPDB-chMAb1 (antibody, human IgG1, kappa)
heavy: not shown
light: DIQMTQSPPSLSASLGGKVTITCKASQDIDRYMAWYQDKPGKGPRLLIHDTSTLQPGIPSRFSGSGSGRDYSFSISNLEPEDIATYYCLQYDNLWTFGGGTKLEIKRTVAAPSVFIFPPSDEQLKSGTASVVCLLNNFYPREAKVQWKVDNALQSGNSQESVTEQDSKDSTYSLSSTLTLSKADYEKHKVYACEVTHQGLSSPVTKSFNRGEC
modifications: DM4 linked through SPDB, average DAR 4.5 per antibody; sites not stated
notes: antibody drug conjugate of chMAb1; also called chMAb1-SPDB-DM4
As to B5, the “Ratio of EC50s” value in experiment [2] worked out at 1. Also, in experiment [6], the “Cytotoxic activity IC50 (Cell Titer-Glo), HCT116-LAMP1 clone 5, antigen density 451 000” value came to 0.2 nM and the “Cytotoxic activity IC50 (Cell Titer-Glo), HCT116-LAMP1 clone 8, antigen density 160 000” value stood at 0.1 nM. In addition, in experiment [4], a half-maximal effect (EC50) was put at 6.6 nM. For the same molecule, in experiment [5], a half-maximal effect (EC50) was put at 6.6 nM.

B6: huMAb1_2 (antibody, human IgG1, kappa, V domains shown)
VH: QVQLVQSGAELVKPGASVKMSCKASGYIFTNYNIHWVKKSPGQGLEWIGAIYPGNGDAPYSQKFQDRATLTADTSSSTTYMELSSLTSEDSAVYYCVRANWDVAFAYWGQGTLVSVSS
VL: DIQMTQSPPSLSASVGGKVTITCKASQDIDRYMAWYQDKPGKGPKLLIHDTSTLQPGIPSRFSGSGSGRDYSFSISNLEPEDIATYYCLQYDNLWTFGGGTKLEIKR
notes: humanized, VH2-huIgG1 and VL2-huCk
As for B6, the concentration for a half-maximal effect (EC50) amounted to 6.6 nM in experiment [4] and 13.3 nM in experiment [7].

B7: DM4-SPDB-huMAb1_2 (antibody, human IgG1, kappa, V domains shown)
VH: B6 VH
VL: B6 VL
modifications: DM4 linked through SPDB, average DAR 4.05 per antibody; sites not stated
For the molecule B7, the “cytotoxicity IC50” value in experiment [3] came to 0.07 nM.

B8: huMAb1_3 (antibody, human IgG1, kappa, V domains shown)
VH: B6 VH with K38R, K39Q, S40A, S61A, D66G, S91T, S115T
VL: B6 VL with P9S, D38Q, I58V, F73L, S74T, N77S
notes: humanized, VH3-huIgG1 and VL3-huCk
Take B8: the EC50 in experiment [4] was 10.3 nM; in experiment [7], 17.7 nM.

B9: DM4-SPDB-huMAb1_3 (antibody, human IgG1, kappa, V domains shown)
VH: B6 VH with K38R, K39Q, S40A, S61A, D66G, S91T, S115T
VL: B6 VL with P9S, D38Q, I58V, F73L, S74T, N77S
modifications: DM4 linked through SPDB, average DAR 3.5 per antibody; sites not stated
Turning to B9, the “cytotoxicity IC50” value in experiment [3] worked out at 0.12 nM.

B10: huMAb1_negB (antibody, human IgG1, kappa)
heavy: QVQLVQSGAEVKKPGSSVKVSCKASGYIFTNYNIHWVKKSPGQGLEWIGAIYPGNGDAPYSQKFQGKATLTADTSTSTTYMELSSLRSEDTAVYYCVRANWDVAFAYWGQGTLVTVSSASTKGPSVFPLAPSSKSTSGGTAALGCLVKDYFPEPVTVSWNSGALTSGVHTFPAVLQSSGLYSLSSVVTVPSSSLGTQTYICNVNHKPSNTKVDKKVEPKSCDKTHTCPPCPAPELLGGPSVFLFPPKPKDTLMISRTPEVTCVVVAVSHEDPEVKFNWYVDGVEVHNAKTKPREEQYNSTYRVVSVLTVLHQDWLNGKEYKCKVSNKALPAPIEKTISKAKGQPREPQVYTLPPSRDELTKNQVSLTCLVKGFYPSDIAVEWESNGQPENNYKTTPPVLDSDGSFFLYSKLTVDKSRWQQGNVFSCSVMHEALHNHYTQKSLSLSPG
light: DIQMTQSPSSLSASVGDRVTITCKASQDIDRYMAWYQDKPGKAPRLLIHDTSTLQSGVPSRFSGSGSGRDYTLTISNLEPEDFATYYCLQYDNLWTFGGGTKVEIKRTVAAPSVFIFPPSDEQLKSGTASVVCLLNNFYPREAKVQWKVDNALQSGNSQESVTEQDSKDSTYSLSSTLTLSKADYEKHKVYACEVTHQGLSSPVTKSFNRGEC
notes: LC1 and HCnegB (VH1-huIgG1_266A, D265A by Kabat)
B10: the EC50 with LAMP1::histag [8] was found to be 0.07 nM.
